According to PMC7072297, “Structural Determinants Responsible for the Preferential Insertion of Ribonucleotides by Bacterial NHEJ PolDom” (Biomolecules, 2020):

Substrate: Nc1nc2c(ncn2[C@@H]2O[C@H](COP(=O)(O)OP(=O)(O)OP(=O)(O)O)[C@@H](O)[C@H]2O)c(=O)[nH]1
Assay: steady-state primer extension, denaturing PAGE
Format: biochemical, Pseudomonas aeruginosa
Conditions: 200 nM primer/template DNA (Cy5P/T29(A)), misinsertion opposite template dA, 5 mM MnCl2, pH 7.5, 30 °C
From the text: steady-state primer extension, denaturing PAGE on Pa-PolDom

B1: Pa-PolDom (Pseudomonas aeruginosa PAO1) (protein)
chain: GARKASAGASRAATAGVRISHPQRLIDPSIQASKLELAEFHARYADLLLRDLRERPVSLVRGPDGIGGELFFQKHAARLKIPGIVQLDPALDPGHPPLLQIRSAEALVGAVQMGSIEFHTWNASLANLERPDRFVLDLDPDPALPWKRMLEATQLSLTLLDELGLRAFLKTSGGKGMHLLVPLERRHGWDEVKDFAQAISQHLARLMPERFSAVSGPRNRVGKIFVDYLRNSRGASTVAAYSVRAREGLPVSVPVFREELDSLQGANQWNLRSLPQRLDELAGDDPWADYAGTRQRISAAMRRQLGRG
notes: polymerization domain, residues 533-840; Arg532 codon replaced by start Met; E. coli BL21(DE3)
Km: 1.211 ± 0.09 µM | kcat: 0.92 ± 0.02 s⁻¹
